According to publication PMC5584161, “Selective compounds enhance osteoblastic activity by targeting HECT domain of ubiquitin ligase Smurf1” (Oncotarget, 2016):

B1: UbcH5c (enzyme)
chain: not shown
notes: UbcH5c, ubiquitin-conjugating enzyme (E2) of Smurf1; The methods say the assay is the same as GST-Smurf1 with His-Ub, so a His tag is likely; also called E2; source: prokaryotic expressed, purified
B2: GST-Smurf1 (Smad ubiquitination regulatory factor-1) (enzyme, UniProt Q9HCE7-2 1-731, looked up)
chain: MSNPGTRRNGSSIKIRLTVLCAKNLAKKDFFRLPDPFAKIVVDGSGQCHSTDTVKNTLDPKWNQHYDLYVGKTDSITISVWNHKKIHKKQGAGFLGCVRLLSNAISRLKDTGYQRLDLCKLNPSDTDAVRGQIVVSLQTRDRIGTGGSVVDCRGLLENEGTVYEDSGPGRPLSCFMEEPAPYTDSTGAAAGGGNCRFVESPSQDQRLQAQRLRNPDVRGSLQTPQNRPHGHQSPELPEGYEQRTTVQGQVYFLHTQTGVSTWHDPRIPRDLNSVNCDELGPLPPGWEVRSTVSGRIYFVDHNNRTTQFTDPRLHHIMNHQCQLKEPSQPLPLPSEGSLEDEELPAQRYERDLVQKLKVLRHELSLQQPQAGHCRIEVSREEIFEESYRQIMKMRPKDLKKRLMVKFRGEEGLDYGGVAREWLYLLCHEMLNPYYGLFQYSTDNIYMLQINPDSSINPDHLSYFHFVGRIMGLAVFHGHYINGGFTVPFYKQLLGKPIQLSDLESVDPELHKSLVWILENDITPVLDHTFCVEHNAFGRILQHELKPNGRNVPVTEENKKEYVRLYVNWRFMRGIEAQFLALQKGFNELIPQHLLKPFDQKELELIIGGLDKIDLNDWKSNTRLKHCVADSNIVRWFWQAVETFDEERRARLLQFVTGSTRVPLQGFKALQGSTGAAGPRLFTIHLIDANTDNLPKAHTCFNRIDIPPYESYEKLYEKLLTAVEETCGFAVE
notes: Smurf1, HECT-type ubiquitin ligase; also called GST-tagged Smurf1; source: bacteria-expressed, immobilized on Glutathione-Sepharose 4B beads

Columns and labels:
Test in all cases: pull-down; GST fusion immobilized on Glutathione-Sepharose 4B beads, incubated with the partner for 8 h at 4°C; washed with GST-binding buffer (100 mM NaCl, 50 mM NaF, 2 mM EDTA, 1% NP-40); immunoblotting; also run with B06 and B75 where the paper says they had no effect
Settings in all cases: both partners purified
[1] = biological target: B2
His-Ub (ubiquitin) = biological target: T1, His-Ub (ubiquitin) (UniProt P0CG48 1-76)
T1 construct: ubiquitin, single (mono) ubiquitin; also called mono-Ub; single Ub protein

UbcH7 = biological target: T2, UbcH7 (UniProt P68036 1-154)
T2 construct: UbcH7, ubiquitin-conjugating enzyme (E2) of Smurf1; The methods say the assay is the same as GST-Smurf1 with His-Ub, so a His tag is likely; also called E2; source: prokaryotic expressed, purified
T2 sequence (P68036 whole entry): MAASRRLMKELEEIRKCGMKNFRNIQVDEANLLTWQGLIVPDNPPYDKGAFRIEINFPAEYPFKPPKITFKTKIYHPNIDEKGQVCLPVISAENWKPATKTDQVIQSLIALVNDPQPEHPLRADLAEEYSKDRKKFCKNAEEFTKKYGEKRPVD

| binding result [1] | binding result (His-Ub (ubiquitin)) | binding result (UbcH7) | Binder |
| --- | --- | --- | --- |
| binds | – | – | B1 |
| – | binds | binds | B2 |
